From publication PMC5289644

Columns and labels:
[1] = biological target: HA-tagged intracellular part of Smβ-Int1 (Smβ-Int1 C-term) (S. mansoni)
[2] = biological target: HA-tagged intracellular part of Smβ-Int1 (Smβ-Int1 C-term) (S. mansoni); remark: listed apart in the source

Work on “V5-tagged SmVKR1 (wildtype venus kinase receptor 1 of S. mansoni)” yielded a GVBD (%) of Xenopus oocytes without L-Arg; Smβ-Int1, SmILK and SmVKR1 co-expressed, no SmPINCH (Inj 10) [1] of 0%, a GVBD (%) of Xenopus oocytes without L-Arg; Smβ-Int1, SmILK, SmPINCH and SmVKR1 co-expressed (Inj 11) [1] of 80% and a GVBD (%) of Xenopus oocytes without L-Arg; Smβ-Int1, SmILK, SmPINCH, SmNck2 and SmVKR1 co-expressed, with the ILK inhibitor QLT-0267 (1 μM) (Inj 13) [1] of 0%. For the same substance, the GVBD (%) of Xenopus oocytes without L-Arg; Smβ-Int1, SmILK, SmPINCH, SmNck2ΔSH3 and SmVKR1 co-expressed (Inj 15) [1] was 10%, the GVBD (%) of Xenopus oocytes without L-Arg; Smβ-Int1, SmILK, SmPINCHΔLIM4 in place of SmPINCH and SmVKR1 co-expressed (Inj 14) [1] was 0% and the GVBD (%) of Xenopus oocytes without L-Arg; Smβ-Int1, SmILKΔAnk1 in place of SmILK, SmPINCH and SmVKR1 co-expressed (Inj 12) [1] was 0%. For the same substance, the GVBD (%) of Xenopus oocytes without L-Arg; Smβ-Int1, SmPINCH and SmVKR1 co-expressed, no SmILK (Inj 9) [1] was 0%, the GVBD (%) of Xenopus oocytes without L-Arg; Smβ-Int1, SmILK, SmPINCH, SmNck2 and SmVKR1 co-expressed (Exp 1) [2] was 90% and the GVBD (%) without L-Arg; as Exp 1 with SmILKΔAnk1 in place of SmILK (Exp 2) [2] was 0%. The GVBD (%) without L-Arg; as Exp 1 with SmNck2ΔSH3 in place of SmNck2 (Exp 5) [2] was 10%, the GVBD (%) without L-Arg; as Exp 1 with SmPINCHΔLIM1 in place of SmPINCH (Exp 4) [2] was 0% and the GVBD (%) without L-Arg; as Exp 1 with SmPINCHΔLIM4 in place of SmPINCH (Exp 3) [2] was 0%. It also gave a GVBD (%) without L-Arg; as Exp 1 with the ILK inhibitor QLT-0267 (1 μM) (Exp 7) [2] of 0%.
